Target: Geobacillus kaustophilus ribosomal protein S18 (Geobacillus kaustophilus, UniProt Q5KU71 1-78)
Experiment: native gel or EMSA

B1: Geobacillus kaustophilus ribosomal protein S6 (natural protein)
chain: MRKYEIMYIIRPNMDDEARQALVERFNNVLKENGAEITNVTDWGKRRLAYEIQKYRDGYYMIVNVVSEPKAVQEFDRLARISEDIIRHIVVKEEE
  binding result: binds

From article PMC3895269 (RNA, 2014)
